Measured values taken from publication PMC7154664 (Angewandte Chemie (International Ed. in English), 2020).

How the values were obtained:
HACLHs = HACLHs (Homo sapiens, UniProt Q9UJ83); assay: carboligation, LC-MS product analysis after […] h; type: biochemical; details: formyl-CoA 1 mM as C1 donor, aldehyde 10 mM, enzyme 5 μM
YciA = target: T1, YciA (Escherichia coli, UniProt P0A8Z0); assay: thioesterase activity assay; type: biochemical; details: racemic mandelyl-CoA 0.5 mM, YciA 2 μM
T1 sequence (P0A8Z0 1-132): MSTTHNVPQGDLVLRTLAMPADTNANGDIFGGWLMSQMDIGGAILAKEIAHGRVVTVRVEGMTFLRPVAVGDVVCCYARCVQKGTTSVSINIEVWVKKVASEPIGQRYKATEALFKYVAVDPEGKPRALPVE

purified protein = substrate: CC(C)(COP(=O)(O)OP(=O)(O)OC[C@H]1O[C@@H](n2cnc3c(N)ncnc32)[C@H](O)[C@@H]1OP(=O)(O)O)[C@@H](O)C(=O)NCCC(=O)NCCSC(=O)C(=O)O; assay: purified protein; details: decarboxylation to formyl-CoA; ThDP-dependent

Sequence of HACLHs (Q9UJ83 whole entry): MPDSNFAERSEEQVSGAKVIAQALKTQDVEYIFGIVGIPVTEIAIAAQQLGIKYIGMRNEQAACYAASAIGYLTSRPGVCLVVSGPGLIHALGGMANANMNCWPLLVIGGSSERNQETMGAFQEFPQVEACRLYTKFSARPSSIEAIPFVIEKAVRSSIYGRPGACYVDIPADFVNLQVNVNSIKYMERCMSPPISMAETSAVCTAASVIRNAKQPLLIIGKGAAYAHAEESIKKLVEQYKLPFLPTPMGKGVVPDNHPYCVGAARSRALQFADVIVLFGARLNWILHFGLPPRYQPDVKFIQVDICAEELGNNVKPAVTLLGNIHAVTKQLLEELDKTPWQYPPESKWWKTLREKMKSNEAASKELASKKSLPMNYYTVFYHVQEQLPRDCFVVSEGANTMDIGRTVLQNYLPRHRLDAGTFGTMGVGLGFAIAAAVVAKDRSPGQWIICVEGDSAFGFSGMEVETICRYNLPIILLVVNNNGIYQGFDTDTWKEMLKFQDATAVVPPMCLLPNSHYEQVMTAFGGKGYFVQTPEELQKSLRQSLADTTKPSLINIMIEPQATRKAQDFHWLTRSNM

CC(C)(COP(=O)(O)OP(=O)(O)OC[C@H]1O[C@@H](n2cnc3c(N)ncnc32)[C@H](O)[C@@H]1OP(=O)(O)O)[C@@H](O)C(=O)NCCC(=O)NCCSC=O [formyl‐CoA]
carboligation, LC-MS product analysis after 1 h (HACLHs): HACLHs and OXCMe are able to perform nucleophilic C1‐extension reactions of different aldehydes with formyl‐CoA

CC(C)(COP(=O)(O)OP(=O)(O)OC[C@H]1O[C@@H](n2cnc3c(N)ncnc32)[C@H](O)[C@@H]1OP(=O)(O)O)[C@@H](O)C(=O)NCCC(=O)NCCSC(=O)C(O)c1ccccc1 (stereo partly drawn) [mandelyl‐CoA]
thioesterase activity assay (YciA): YciA showed relatively high mandelyl‐CoA thioesterase activity

B1: OXCMe (Methylorubrum extorquens AM1) (protein)
chain: MTVQAQNIDAITAGAMPHEEPELTDGFHLVIDALKLNGIETIYNVPGIPITDLGRLAQAEGLRVISFRHEQNAGNAAAIAGFLTKKPGICLTVSAPGFLNGLTALANATTNCFPMILISGSSEREIVDLQQGDYEEMDQLAIAKPLCKAAFRVLHAADIGIGVARAIRAAVSGRPGGVYLDLPAKLFSQVIDADLGARSLVKVIDAAPAQLPAPAAIARALDVLKSAERPLIILGKGAAYAQADEAVRALVEESGIPYVPMSMAKGLLPDTHPLSAGAARSTALKDSDVVLLVGARLNWLLSHGKGKTWGEPGSKRFIQIDIEPREMDSNVEIVAPVVGDIGSCVEALLDGIRKDWKGAPSNWLETLRGKREANIAKMAPKLMKNSSPMCFHSALGALRTVIKERPDAILVNEGANTLDLARGIIDMYQPRKRLDVGTWGVMGIGMGFAVAAAVETGKPVLAVEGDSAFGFSGMEVETICRYELPVCIVIFNNNGIYRGTDTDPTGRDPGTTVFVKNSRYDKMMEAFGGVGVNVTTPDELKRAVDEAMNSGKPTLINAEIDPAAGSESGNIGSLNPQSTLKKK
Km (purified protein): 105 ± 11 µM | kcat (purified protein): 98 ± 3 s⁻¹ | kcat/Km (purified protein): 930000 M⁻¹ s⁻¹

B2: OXCMe (Methylorubrum extorquens AM1; Y497A) (protein)
chain: MTVQAQNIDAITAGAMPHEEPELTDGFHLVIDALKLNGIETIYNVPGIPITDLGRLAQAEGLRVISFRHEQNAGNAAAIAGFLTKKPGICLTVSAPGFLNGLTALANATTNCFPMILISGSSEREIVDLQQGDYEEMDQLAIAKPLCKAAFRVLHAADIGIGVARAIRAAVSGRPGGVYLDLPAKLFSQVIDADLGARSLVKVIDAAPAQLPAPAAIARALDVLKSAERPLIILGKGAAYAQADEAVRALVEESGIPYVPMSMAKGLLPDTHPLSAGAARSTALKDSDVVLLVGARLNWLLSHGKGKTWGEPGSKRFIQIDIEPREMDSNVEIVAPVVGDIGSCVEALLDGIRKDWKGAPSNWLETLRGKREANIAKMAPKLMKNSSPMCFHSALGALRTVIKERPDAILVNEGANTLDLARGIIDMYQPRKRLDVGTWGVMGIGMGFAVAAAVETGKPVLAVEGDSAFGFSGMEVETICRYELPVCIVIFNNNGIARGTDTDPTGRDPGTTVFVKNSRYDKMMEAFGGVGVNVTTPDELKRAVDEAMNSGKPTLINAEIDPAAGSESGNIGSLNPQSTLKKK
Km (purified protein): 180 ± 17 µM | kcat (purified protein): 1.32 ± 0.04 s⁻¹ | kcat/Km (purified protein): 7300 M⁻¹ s⁻¹

B3: OXCMe (Methylorubrum extorquens AM1; S568A/Y497A) (protein)
chain: MTVQAQNIDAITAGAMPHEEPELTDGFHLVIDALKLNGIETIYNVPGIPITDLGRLAQAEGLRVISFRHEQNAGNAAAIAGFLTKKPGICLTVSAPGFLNGLTALANATTNCFPMILISGSSEREIVDLQQGDYEEMDQLAIAKPLCKAAFRVLHAADIGIGVARAIRAAVSGRPGGVYLDLPAKLFSQVIDADLGARSLVKVIDAAPAQLPAPAAIARALDVLKSAERPLIILGKGAAYAQADEAVRALVEESGIPYVPMSMAKGLLPDTHPLSAGAARSTALKDSDVVLLVGARLNWLLSHGKGKTWGEPGSKRFIQIDIEPREMDSNVEIVAPVVGDIGSCVEALLDGIRKDWKGAPSNWLETLRGKREANIAKMAPKLMKNSSPMCFHSALGALRTVIKERPDAILVNEGANTLDLARGIIDMYQPRKRLDVGTWGVMGIGMGFAVAAAVETGKPVLAVEGDSAFGFSGMEVETICRYELPVCIVIFNNNGIARGTDTDPTGRDPGTTVFVKNSRYDKMMEAFGGVGVNVTTPDELKRAVDEAMNSGKPTLINAEIDPAAGSEAGNIGSLNPQSTLKKK
Km (purified protein): 103 ± 15 µM | kcat (purified protein): 0.32 ± 0.01 s⁻¹ | kcat/Km (purified protein): 3100 M⁻¹ s⁻¹

B4: OXCMe (Methylorubrum extorquens AM1; S568A) (protein)
chain: MTVQAQNIDAITAGAMPHEEPELTDGFHLVIDALKLNGIETIYNVPGIPITDLGRLAQAEGLRVISFRHEQNAGNAAAIAGFLTKKPGICLTVSAPGFLNGLTALANATTNCFPMILISGSSEREIVDLQQGDYEEMDQLAIAKPLCKAAFRVLHAADIGIGVARAIRAAVSGRPGGVYLDLPAKLFSQVIDADLGARSLVKVIDAAPAQLPAPAAIARALDVLKSAERPLIILGKGAAYAQADEAVRALVEESGIPYVPMSMAKGLLPDTHPLSAGAARSTALKDSDVVLLVGARLNWLLSHGKGKTWGEPGSKRFIQIDIEPREMDSNVEIVAPVVGDIGSCVEALLDGIRKDWKGAPSNWLETLRGKREANIAKMAPKLMKNSSPMCFHSALGALRTVIKERPDAILVNEGANTLDLARGIIDMYQPRKRLDVGTWGVMGIGMGFAVAAAVETGKPVLAVEGDSAFGFSGMEVETICRYELPVCIVIFNNNGIYRGTDTDPTGRDPGTTVFVKNSRYDKMMEAFGGVGVNVTTPDELKRAVDEAMNSGKPTLINAEIDPAAGSEAGNIGSLNPQSTLKKK
Km (purified protein): 23 ± 2 µM
